What was measured:
FcγRIIIA (CD16) (human) = FcγRIIIA (CD16) (human) (UniProt P08637); assay: cell-based or functional assay
[1] = target: CD20 on Daudi lymphoma cells (UniProt P11836); assay: flow cytometry on Daudi cells, goat anti-human Fc AF647; matched Fc density chosen for the comparison of C3b deposition, concentration not given
CD20 on Daudi lymphoma cells, sequence (P11836 whole entry): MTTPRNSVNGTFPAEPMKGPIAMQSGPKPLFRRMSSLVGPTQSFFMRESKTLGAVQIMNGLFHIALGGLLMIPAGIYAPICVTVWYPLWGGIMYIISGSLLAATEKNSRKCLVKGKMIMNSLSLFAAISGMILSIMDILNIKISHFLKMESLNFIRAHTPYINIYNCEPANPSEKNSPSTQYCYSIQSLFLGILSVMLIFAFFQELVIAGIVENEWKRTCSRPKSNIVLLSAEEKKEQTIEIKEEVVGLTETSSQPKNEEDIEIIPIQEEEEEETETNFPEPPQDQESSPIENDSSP

FcγRIIIA (CD16) (human), sequence (P08637 17-254): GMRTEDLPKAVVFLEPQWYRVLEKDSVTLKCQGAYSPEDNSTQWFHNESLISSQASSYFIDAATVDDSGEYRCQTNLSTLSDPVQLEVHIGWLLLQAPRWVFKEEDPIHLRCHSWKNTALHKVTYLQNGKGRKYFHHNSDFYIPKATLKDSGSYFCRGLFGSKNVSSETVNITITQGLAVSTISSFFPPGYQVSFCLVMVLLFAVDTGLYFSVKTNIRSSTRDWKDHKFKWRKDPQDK

MabThera (rituximab, RTX) (antibody)
percentage of phagocytic macrophages, Daudi targets, absence of complement (ADCP) (FcγRIIIA (CD16) (human)): 8.6%
percentage of phagocytic macrophages, Daudi targets, presence of complement (ADCP+CDCP) (FcγRIIIA (CD16) (human)): 24.1%
MFI anti-Fc [1]: 12200 MFI

— US20240360189A1
